Results on 10 molecules are retold here after patent US20240124615A1 (HEFEI TG IMMUNOPHARMA, published 2024).

The chains are these.
T1: Human B7H6 (ACRO biosystems, cat. No. B76-H52H8) (human, UniProt Q68D85 25-262)
T1 construct: Bought antigen; also called B7H6 antigen; human B7H6 protein
T1 sequence (looked up): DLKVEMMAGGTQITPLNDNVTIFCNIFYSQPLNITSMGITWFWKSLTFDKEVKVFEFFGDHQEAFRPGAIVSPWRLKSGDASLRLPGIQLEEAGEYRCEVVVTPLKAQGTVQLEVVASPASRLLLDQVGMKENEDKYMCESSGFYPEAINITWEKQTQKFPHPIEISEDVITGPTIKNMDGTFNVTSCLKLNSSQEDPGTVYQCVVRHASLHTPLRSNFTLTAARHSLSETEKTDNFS

B1: CD3xB7H6-2 bispecific antibody (bispecific antibody, human IgG1, L234A L235A)
chain 1: not shown
chain 2: DIVLTQSPDSLAVSLGERATINCKASQSVDYDGDSYMNWYQQKPGQPPKLLIYAASTLHSGVPDRFSGSGSGTDFTLTISSLQAEDVAVYYCQQSKEDPRTFGQGTKLEIKGGGGSGGGGSGGGGSEVQLVQSGAEVKKPGASVKVSCKASGYTFTDYNMDWVRQAPGQGLEWIGDINPNNGGTLYNQKFRGRVTLTVDTSISTAYMELSRLRSDDTAVYYCARSEVFYGNYADYWGQGTTVTVSSEPKSCDKTHTCPPCPAPEAAGGPSVFLFPPKPKDTLMISRTPEVTCVVVDVSHEDPEVKFNWYVDGVEVHNAKTKPREEQYNSTYRVVSVLTVLHQDWLNGKEYKCKVSNKALPAPIEKTISKAKGQPREPQVCTLPPSRDELTKNQVSLSCAVKGFYPSDIAVEWESNGQPENNYKTTPPVLDSDGSFFLVSKLTVDKSRWQQGNVFSCSVMHEALHNHYTQKSLSLSPGK
notes: Heterodimer of two scFv-Fc units, knob-into-hole human IgG1 Fc; name formed by analogy with CD3xB7H6-14
B2: CD3xB7H6-5 bispecific antibody (bispecific antibody, human IgG1, L234A L235A)
chain 1: not shown
chain 2: DIVLTQSPDSLAVSLGERATINCKASQSVDYDGDSYMNWYQQKPGQPPKLLIYAASTLHSGIPDRFSGSGSGTDFTLTISSLQAEDVAVYYCQQSKEDPRTFGQGTKLEIKGGGGSGGGGSGGGGSEVQLVQSGAEVKKPGASVKVSCKASGYTFTDYNMDWVRQAPGQGLEWMGDINPNNGGTLYNQKFRGRVTMTVDTSISTAYMELSRLRSDDTAVYYCARSEVFYGNYADYWGQGTTVTVSSEPKSCDKTHTCPPCPAPEAAGGPSVFLFPPKPKDTLMISRTPEVTCVVVDVSHEDPEVKFNWYVDGVEVHNAKTKPREEQYNSTYRVVSVLTVLHQDWLNGKEYKCKVSNKALPAPIEKTISKAKGQPREPQVCTLPPSRDELTKNQVSLSCAVKGFYPSDIAVEWESNGQPENNYKTTPPVLDSDGSFFLVSKLTVDKSRWQQGNVFSCSVMHEALHNHYTQKSLSLSPGK
notes: as for B1
B3: CD3xB7H6-7 bispecific antibody (bispecific antibody, human IgG1, L234A L235A)
chain 1: not shown
chain 2: DIVLTQSPDSLAVSLGERATINCKASQSVDYDGDSYMNWYQQKPGQPPKLLIYAASTLHSGIPDRFSGSGSGTDFTLTISSLQAEDVAVYYCQQSKEDPRTFGQGTKLEIKGGGGSGGGGSGGGGSEVQLVQSGAEVKKPGASVKVSCKASGYTFTDYNMDWVRQAPGQGLEWIGDINPNNGGTLYNQKFRGRVTLTVDKSISTAYMELSRLRSDDTAVYYCARSEVFYGNYADYWGQGTTVTVSSEPKSCDKTHTCPPCPAPEAAGGPSVFLFPPKPKDTLMISRTPEVTCVVVDVSHEDPEVKFNWYVDGVEVHNAKTKPREEQYNSTYRVVSVLTVLHQDWLNGKEYKCKVSNKALPAPIEKTISKAKGQPREPQVCTLPPSRDELTKNQVSLSCAVKGFYPSDIAVEWESNGQPENNYKTTPPVLDSDGSFFLVSKLTVDKSRWQQGNVFSCSVMHEALHNHYTQKSLSLSPGK
notes: as for B1
B4: CD3xB7H6-3 bispecific antibody (bispecific antibody, human IgG1, L234A L235A)
chain 1: not shown
chain 2: DIVLTQSPDSLAVSLGERATINCKASQSVDYDGDSYMNWYQQKPGQPPKLLIYAASTLHSGVPDRFSGSGSGTDFTLTISSLQAEDVAVYYCQQSKEDPRTFGQGTKLEIKGGGGSGGGGSGGGGSEVQLVQSGAEVKKPGASVKVSCKASGYTFTDYNMDWVRQAPGQGLEWIGDINPNNGGTLYNQKFRGRVTLTVDKSISTAYMELSRLRSDDTAVYYCARSEVFYGNYADYWGQGTTVTVSSEPKSCDKTHTCPPCPAPEAAGGPSVFLFPPKPKDTLMISRTPEVTCVVVDVSHEDPEVKFNWYVDGVEVHNAKTKPREEQYNSTYRVVSVLTVLHQDWLNGKEYKCKVSNKALPAPIEKTISKAKGQPREPQVCTLPPSRDELTKNQVSLSCAVKGFYPSDIAVEWESNGQPENNYKTTPPVLDSDGSFFLVSKLTVDKSRWQQGNVFSCSVMHEALHNHYTQKSLSLSPGK
notes: as for B1
B5: CD3xB7H6-4 bispecific antibody (bispecific antibody, human IgG1, L234A L235A)
chain 1: not shown
chain 2: DIVLTQSPDSLAVSLGERATINCKASQSVDYDGDSYMNWYQQKPGQPPKLLIYAASTLHSGVPDRFSGSGSGTDFTLTISSLQAEDVAVYYCQQSKEDPRTFGQGTKLEIKGGGGSGGGGSGGGGSEVQLVQSGAEVKKPGASVKVSCKASGYTFTDYNMDWVRQAPGKGLEWIGDINPNNGGTLYNQKFRGRVTLTVDKSISTAYMELSRLRSDDTAVYYCARSEVFYGNYADYWGQGTTVTVSSEPKSCDKTHTCPPCPAPEAAGGPSVFLFPPKPKDTLMISRTPEVTCVVVDVSHEDPEVKFNWYVDGVEVHNAKTKPREEQYNSTYRVVSVLTVLHQDWLNGKEYKCKVSNKALPAPIEKTISKAKGQPREPQVCTLPPSRDELTKNQVSLSCAVKGFYPSDIAVEWESNGQPENNYKTTPPVLDSDGSFFLVSKLTVDKSRWQQGNVFSCSVMHEALHNHYTQKSLSLSPGK
notes: as for B1
B6: CD3xB7H6-6 bispecific antibody (bispecific antibody, human IgG1, L234A L235A)
chain 1: not shown
chain 2: DIVLTQSPDSLAVSLGERATINCKASQSVDYDGDSYMNWYQQKPGQPPKLLIYAASTLHSGIPDRFSGSGSGTDFTLTISSLQAEDVAVYYCQQSKEDPRTFGQGTKLEIKGGGGSGGGGSGGGGSEVQLVQSGAEVKKPGASVKVSCKASGYTFTDYNMDWVRQAPGQGLEWIGDINPNNGGTLYNQKFRGRVTLTVDTSISTAYMELSRLRSDDTAVYYCARSEVFYGNYADYWGQGTTVTVSSEPKSCDKTHTCPPCPAPEAAGGPSVFLFPPKPKDTLMISRTPEVTCVVVDVSHEDPEVKFNWYVDGVEVHNAKTKPREEQYNSTYRVVSVLTVLHQDWLNGKEYKCKVSNKALPAPIEKTISKAKGQPREPQVCTLPPSRDELTKNQVSLSCAVKGFYPSDIAVEWESNGQPENNYKTTPPVLDSDGSFFLVSKLTVDKSRWQQGNVFSCSVMHEALHNHYTQKSLSLSPGK
notes: as for B1
B7: CD3xB7H6-1 bispecific antibody (bispecific antibody, human IgG1, L234A L235A)
chain 1: not shown
chain 2: DIVLTQSPDSLAVSLGERATINCKASQSVDYDGDSYMNWYQQKPGQPPKLLIYAASTLHSGVPDRFSGSGSGTDFTLTISSLQAEDVAVYYCQQSKEDPRTFGQGTKLEIKGGGGSGGGGSGGGGSEVQLVQSGAEVKKPGASVKVSCKASGYTFTDYNMDWVRQAPGQGLEWMGDINPNNGGTLYNQKFRGRVTMTVDTSISTAYMELSRLRSDDTAVYYCARSEVFYGNYADYWGQGTTVTVSSEPKSCDKTHTCPPCPAPEAAGGPSVFLFPPKPKDTLMISRTPEVTCVVVDVSHEDPEVKFNWYVDGVEVHNAKTKPREEQYNSTYRVVSVLTVLHQDWLNGKEYKCKVSNKALPAPIEKTISKAKGQPREPQVCTLPPSRDELTKNQVSLSCAVKGFYPSDIAVEWESNGQPENNYKTTPPVLDSDGSFFLVSKLTVDKSRWQQGNVFSCSVMHEALHNHYTQKSLSLSPGK
notes: Heterodimer of two scFv-Fc monovalent units, knob-into-hole human IgG1 Fc; name formed by analogy with the printed CD3xB7H6-14
B8: CD3xB7H6-8 bispecific antibody (bispecific antibody, human IgG1, L234A L235A)
chain 1: not shown
chain 2: DIVLTQSPDSLAVSLGERATINCKASQSVDYDGDSYMNWYQQKPGQPPKLLIYAASTLHSGIPDRFSGSGSGTDFTLTISSLQAEDVAVYYCQQSKEDPRTFGQGTKLEIKGGGGSGGGGSGGGGSEVQLVQSGAEVKKPGASVKVSCKASGYTFTDYNMDWVRQAPGKGLEWIGDINPNNGGTLYNQKFRGRVTLTVDKSISTAYMELSRLRSDDTAVYYCARSEVFYGNYADYWGQGTTVTVSSEPKSCDKTHTCPPCPAPEAAGGPSVFLFPPKPKDTLMISRTPEVTCVVVDVSHEDPEVKFNWYVDGVEVHNAKTKPREEQYNSTYRVVSVLTVLHQDWLNGKEYKCKVSNKALPAPIEKTISKAKGQPREPQVCTLPPSRDELTKNQVSLSCAVKGFYPSDIAVEWESNGQPENNYKTTPPVLDSDGSFFLVSKLTVDKSRWQQGNVFSCSVMHEALHNHYTQKSLSLSPGK
notes: as for B1
B9: CD3xB7H6-10 bispecific antibody (bispecific antibody, human IgG1, L234A L235A)
chain 1: not shown
chain 2: DIVLTQTPLSLSVTPGQPASISCKASQSVDYDGDSYMNWYLQKPGQPPQLLIYAASTLHSGVPDRFSGSGSGTDFTLKISRVEAEDVGVYYCQQSKEDPRTFGQGTKLEIKGGGGSGGGGSGGGGSEVQLVQSGAEVKKPGASVKVSCKASGYTFTDYNMDWVRQAPGQGLEWIGDINPNNGGTLYNQKFRGRVTLTVDTSISTAYMELSRLRSDDTAVYYCARSEVFYGNYADYWGQGTTVTVSSEPKSCDKTHTCPPCPAPEAAGGPSVFLFPPKPKDTLMISRTPEVTCVVVDVSHEDPEVKFNWYVDGVEVHNAKTKPREEQYNSTYRVVSVLTVLHQDWLNGKEYKCKVSNKALPAPIEKTISKAKGQPREPQVCTLPPSRDELTKNQVSLSCAVKGFYPSDIAVEWESNGQPENNYKTTPPVLDSDGSFFLVSKLTVDKSRWQQGNVFSCSVMHEALHNHYTQKSLSLSPGK
notes: as for B1
B10: CD3xB7H6-9 bispecific antibody (bispecific antibody, human IgG1, L234A L235A)
chain 1: not shown
chain 2: DIVLTQTPLSLSVTPGQPASISCKASQSVDYDGDSYMNWYLQKPGQPPQLLIYAASTLHSGVPDRFSGSGSGTDFTLKISRVEAEDVGVYYCQQSKEDPRTFGQGTKLEIKGGGGSGGGGSGGGGSEVQLVQSGAEVKKPGASVKVSCKASGYTFTDYNMDWVRQAPGQGLEWMGDINPNNGGTLYNQKFRGRVTMTVDTSISTAYMELSRLRSDDTAVYYCARSEVFYGNYADYWGQGTTVTVSSEPKSCDKTHTCPPCPAPEAAGGPSVFLFPPKPKDTLMISRTPEVTCVVVDVSHEDPEVKFNWYVDGVEVHNAKTKPREEQYNSTYRVVSVLTVLHQDWLNGKEYKCKVSNKALPAPIEKTISKAKGQPREPQVCTLPPSRDELTKNQVSLSCAVKGFYPSDIAVEWESNGQPENNYKTTPPVLDSDGSFFLVSKLTVDKSRWQQGNVFSCSVMHEALHNHYTQKSLSLSPGK
notes: as for B1

The target in the test is T1, Human B7H6 (ACRO biosystems, cat. No. …). Description: ELISA, B7H6 coated, HRP anti-human IgG detection. On the procedure: Human B7H6 (ACRO biosystems, cat. No. B76-H52H8) and human CD3 antigen (ACRO biosystems, cat. No. CDD-H52W1) were diluted to 2 μg/mL with coating buffer (35 mM NaHCO₃, 15 mM Na₂CO₃, pH 9.6), respectively. 100 μL of the diluted solution was added to each well of an ELISA plate at 4° C. overnight, and then washes with PBST (0.05% Tween 20-PBS, pH 7.2) 3 times. 300 μL of blocking buffer (1% BSA, 0.05% Tween20-PBS, pH 7.2) was added to the plate and allowed to stand at room temperature for 2 h, followed by washing with PBST three times. The corresponding bispecific antibody was added to each well and incubated at room temperature for 1 h, followed by washing with PBST three times. 100 μL of HRP-rabbit anti human IgG secondary antibody (Boster, cat. No. BA1070) diluted in blocking buffer was added to each well and incubated for 1 h at room temperature, followed by washing with PBST three times. TMB was added into each well. The plate was kept away from light at room temperature for 2-5 min, the reaction was stopped by adding 2 M sulfuric acid in each well, and finally OD450 values were read with microplate reader.
For the molecule B1, the binding result is “binds”. Then B2, with “binds”; and B3, with “binds”.

With B4, the binding result is recorded as “binds”. Then B5, with “binds”. Then B6, with “binds”; and B7, with “binds”; and B8, with “binds”. B9: the binding result is reported as “binds”. With B10, the binding result is given as “binds”.
